Experimental data as given in PMC8906434.

Target: PB2-C (amino acids 247 to 736) from influenza A/Vietnam/1203/2004 (H5N1) virus (influenza A/Vietnam/1203/2004 (H5N1))
Test: SEC + other: SAXS

**Q.** “Rab11a_(1-173) (truncated Rab11a, GST tag removed) (from UniProt P62491 1-173) (domain or fragment)” was tested. Which stoichiometry N did it give?
**A.** 1
